{
  "source": "patent US20170285011A1",
  "key": {"[1]": {"molecular_target": "Rotavirus", "experiment": "cell-based or functional assay"}, "[2]": {"molecular_target": "Hepatitis A virus (HAV)", "experiment": "cell-based or functional assay"}, "[3]": {"molecular_target": "Human infectious Norovirus (genotype GII-4)", "experiment": "Norovirus captured on Con A-bound sepharose 4B resin, Ct values by RT-PCR"}, "[4]": {"molecular_target": "Human infectious Norovirus (genotype GII-4)", "experiment": "BLI, antibody and Con A each immobilized on ARG2 chips, same concentration of Norovirus"}},
  "data": [
    {"substance": "concanavalin A (Con A, sigma) (from UniProt P02866 30-281)", "values": [
      {"measurement": "concentration of Rotavirus (copy number by RT-PCR) in MA-104 cells, Con A plus Rotavirus group", "setting": "[1]", "result": 64000, "unit": "unit"},
      {"measurement": "concentration of HAV (copy number by RT-PCR) in FRhk-4 cells, Con A plus HAV group", "setting": "[2]", "result": 27000, "unit": "unit"},
      {"measurement": "collection rate", "setting": "[3]", "result": 94.1, "unit": "%"},
      {"measurement": "fold stronger binding than the antibody", "setting": "[4]", "result": 3, "unit": "fold"}
    ]}
  ]
}
